Non-standard residues stand in square brackets, D forms with d. *: point of attachment. Desaminotyrosyl = O=C(CCc1ccc(O)cc1)*; hArg = N=C(N)NCCCC[C@H](N)C(=O)O; Agmatine = N=C(N)NCCCCN*; Nle = CCCC[C@H](N)C(=O)O; Orn = NCCC[C@H](N)C(=O)O; Abu = CC[C@H](N)C(=O)O; GABA = NCCCC(=O)O
T1: GHRH receptor of human pituitary membranes (human, UniProt Q02643)
T1 sequence: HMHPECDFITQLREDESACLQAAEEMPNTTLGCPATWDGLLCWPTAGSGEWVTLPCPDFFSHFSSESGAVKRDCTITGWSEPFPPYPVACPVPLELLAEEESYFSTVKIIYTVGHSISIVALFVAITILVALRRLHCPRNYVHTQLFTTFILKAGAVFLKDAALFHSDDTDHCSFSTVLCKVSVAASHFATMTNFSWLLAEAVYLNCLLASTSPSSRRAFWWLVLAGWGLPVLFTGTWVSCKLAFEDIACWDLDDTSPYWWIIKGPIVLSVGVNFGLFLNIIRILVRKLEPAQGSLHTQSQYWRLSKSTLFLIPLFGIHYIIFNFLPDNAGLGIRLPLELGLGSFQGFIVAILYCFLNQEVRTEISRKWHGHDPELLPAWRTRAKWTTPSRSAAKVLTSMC

B1: P-20350 [Dat^1, D-Ala^2, Gln^8, Orn^12, Abu^15, Orn^21, Nle^27, Asp^28, Agm^29]hGHRH(1-29)NH2 (peptide)
peptide: [Desaminotyrosyl][dA]DAIFTQSYR[Orn]VL[Abu]QLSAR[Orn]LLQDI[Nle]D[Agmatine]
SMILES: CCCC[C@H](NC(=O)[C@@H](NC(=O)[C@H](CC(=O)O)NC(=O)[C@H](CCC(N)=O)NC(=O)[C@H](CC(C)C)NC(=O)[C@H](CC(C)C)NC(=O)[C@H](CCCN)NC(=O)[C@H](CCCNC(=N)N)NC(=O)[C@H](C)NC(=O)[C@H](CO)NC(=O)[C@H](CC(C)C)NC(=O)[C@H](CCC(N)=O)NC(=O)[C@H](CC)NC(=O)[C@H](CC(C)C)NC(=O)[C@@H](NC(=O)[C@H](CCCN)NC(=O)[C@H](CCCNC(=N)N)NC(=O)[C@H](Cc1ccc(O)cc1)NC(=O)[C@H](CO)NC(=O)[C@H](CCC(N)=O)NC(=O)[C@@H](NC(=O)[C@H](Cc1ccccc1)NC(=O)[C@@H](NC(=O)[C@H](C)NC(=O)[C@H](CC(=O)O)NC(=O)[C@@H](C)NC(=O)CCc1ccc(O)cc1)[C@@H](C)CC)[C@@H](C)O)C(C)C)[C@@H](C)CC)C(=O)N[C@@H](CC(=O)O)C(=O)NCCCCNC(=N)N
B2: P-29702 [Dat^1, D-Ala^2, Orn^12, Abu^15, Orn^21, Nle^27, Gln-Gab^30]hGHRH(1-30)NH2 (peptide)
peptide: [Desaminotyrosyl][dA]DAIFTNSYR[Orn]VL[Abu]QLSAR[Orn]LLQDI[Nle]SRQ-{GABA-NH2}
SMILES: CCCC[C@H](NC(=O)[C@@H](NC(=O)[C@H](CC(=O)O)NC(=O)[C@H](CCC(N)=O)NC(=O)[C@H](CC(C)C)NC(=O)[C@H](CC(C)C)NC(=O)[C@H](CCCN)NC(=O)[C@H](CCCNC(=N)N)NC(=O)[C@H](C)NC(=O)[C@H](CO)NC(=O)[C@H](CC(C)C)NC(=O)[C@H](CCC(N)=O)NC(=O)[C@H](CC)NC(=O)[C@H](CC(C)C)NC(=O)[C@@H](NC(=O)[C@H](CCCN)NC(=O)[C@H](CCCNC(=N)N)NC(=O)[C@H](Cc1ccc(O)cc1)NC(=O)[C@H](CO)NC(=O)[C@H](CC(N)=O)NC(=O)[C@@H](NC(=O)[C@H](Cc1ccccc1)NC(=O)[C@@H](NC(=O)[C@H](C)NC(=O)[C@H](CC(=O)O)NC(=O)[C@@H](C)NC(=O)CCc1ccc(O)cc1)[C@@H](C)CC)[C@@H](C)O)C(C)C)[C@@H](C)CC)C(=O)N[C@@H](CO)C(=O)N[C@@H](CCCNC(=N)N)C(=O)N[C@@H](CCC(N)=O)C(=O)NCCCC(N)=O
B3: P-25502 [Dat^1, D-Ala^2, Fpa5^6, Orn^12, Abu^15, Orn^21, Nle^27, Gab^30]hGHRH(1-30)NH2 (peptide)
peptide: YADAIFTNSYRKVLGQLSARKLLQDIMSRQ
modifications: Dat^1; D-Ala^2; Fpa5^6; Orn^12; Abu^15; Orn^21; Nle^27; Gab^30 (in place of Gln^30); C-terminal -NH2
B4: P-27401 [Dat^1, D-Ala^2, Gln^8, Orn^12, Abu^15, Orn^21, Nle^27, Asp^28, D-Arg^29]hGHRH(1-29)NH-CH3 (peptide)
peptide: [Desaminotyrosyl][dA]DAIFTQSYR[Orn]VL[Abu]QLSAR[Orn]LLQDI[Nle]D[dR]-NHMe
SMILES: CCCC[C@H](NC(=O)[C@@H](NC(=O)[C@H](CC(=O)O)NC(=O)[C@H](CCC(N)=O)NC(=O)[C@H](CC(C)C)NC(=O)[C@H](CC(C)C)NC(=O)[C@H](CCCN)NC(=O)[C@H](CCCNC(=N)N)NC(=O)[C@H](C)NC(=O)[C@H](CO)NC(=O)[C@H](CC(C)C)NC(=O)[C@H](CCC(N)=O)NC(=O)[C@H](CC)NC(=O)[C@H](CC(C)C)NC(=O)[C@@H](NC(=O)[C@H](CCCN)NC(=O)[C@H](CCCNC(=N)N)NC(=O)[C@H](Cc1ccc(O)cc1)NC(=O)[C@H](CO)NC(=O)[C@H](CCC(N)=O)NC(=O)[C@@H](NC(=O)[C@H](Cc1ccccc1)NC(=O)[C@@H](NC(=O)[C@H](C)NC(=O)[C@H](CC(=O)O)NC(=O)[C@@H](C)NC(=O)CCc1ccc(O)cc1)[C@@H](C)CC)[C@@H](C)O)C(C)C)[C@@H](C)CC)C(=O)N[C@@H](CC(=O)O)C(=O)N[C@H](CCCNC(=N)N)C(=O)NC
B5: P-25504 [Dat^1, D-Abu^2, Orn^12, Abu^15, Orn^21, Nle^27, Gab^30]hGHRH(1-30)NH2 (peptide)
peptide: B3 peptide
modifications: Dat^1; D-Abu^2; Orn^12; Abu^15; Orn^21; Nle^27; Gab^30 (in place of Gln^30); C-terminal -NH2
B6: P-23252 [Dat^1-D-Ala^2, Orn^12, Abu^15, Orn^21, Nle^27, Asp^28, Har^30]hGHRH(1-30)NH2 (peptide)
peptide: [Desaminotyrosyl][dA]DAIFTNSYR[Orn]VL[Abu]QLSAR[Orn]LLQDI[Nle]DR[hArg]-NH2
SMILES: CCCC[C@H](NC(=O)[C@@H](NC(=O)[C@H](CC(=O)O)NC(=O)[C@H](CCC(N)=O)NC(=O)[C@H](CC(C)C)NC(=O)[C@H](CC(C)C)NC(=O)[C@H](CCCN)NC(=O)[C@H](CCCNC(=N)N)NC(=O)[C@H](C)NC(=O)[C@H](CO)NC(=O)[C@H](CC(C)C)NC(=O)[C@H](CCC(N)=O)NC(=O)[C@H](CC)NC(=O)[C@H](CC(C)C)NC(=O)[C@@H](NC(=O)[C@H](CCCN)NC(=O)[C@H](CCCNC(=N)N)NC(=O)[C@H](Cc1ccc(O)cc1)NC(=O)[C@H](CO)NC(=O)[C@H](CC(N)=O)NC(=O)[C@@H](NC(=O)[C@H](Cc1ccccc1)NC(=O)[C@@H](NC(=O)[C@H](C)NC(=O)[C@H](CC(=O)O)NC(=O)[C@@H](C)NC(=O)CCc1ccc(O)cc1)[C@@H](C)CC)[C@@H](C)O)C(C)C)[C@@H](C)CC)C(=O)N[C@@H](CC(=O)O)C(=O)N[C@@H](CCCNC(=N)N)C(=O)N[C@@H](CCCCNC(=N)N)C(N)=O
B7: P-23254 [Dat^1, D-Ala^2, Thr^8, Orn^12, Abu^15, Orn^21, Nle^27, Asp^28, Har^30]hGHRH(1-30)NH2 (peptide)
peptide: [Desaminotyrosyl][dA]DAIFTTSYR[Orn]VL[Abu]QLSAR[Orn]LLQDI[Nle]DR[hArg]-NH2
SMILES: CCCC[C@H](NC(=O)[C@@H](NC(=O)[C@H](CC(=O)O)NC(=O)[C@H](CCC(N)=O)NC(=O)[C@H](CC(C)C)NC(=O)[C@H](CC(C)C)NC(=O)[C@H](CCCN)NC(=O)[C@H](CCCNC(=N)N)NC(=O)[C@H](C)NC(=O)[C@H](CO)NC(=O)[C@H](CC(C)C)NC(=O)[C@H](CCC(N)=O)NC(=O)[C@H](CC)NC(=O)[C@H](CC(C)C)NC(=O)[C@@H](NC(=O)[C@H](CCCN)NC(=O)[C@H](CCCNC(=N)N)NC(=O)[C@H](Cc1ccc(O)cc1)NC(=O)[C@H](CO)NC(=O)[C@@H](NC(=O)[C@@H](NC(=O)[C@H](Cc1ccccc1)NC(=O)[C@@H](NC(=O)[C@H](C)NC(=O)[C@H](CC(=O)O)NC(=O)[C@@H](C)NC(=O)CCc1ccc(O)cc1)[C@@H](C)CC)[C@@H](C)O)[C@@H](C)O)C(C)C)[C@@H](C)CC)C(=O)N[C@@H](CC(=O)O)C(=O)N[C@@H](CCCNC(=N)N)C(=O)N[C@@H](CCCCNC(=N)N)C(N)=O
B8: P-23256 [Dat^1, D-Ala^2, Ala^8, Orn^12, Abu^15, Orn^21, Nle^27, Asp^28, Har^30]hGHRH(1-30)NH2 (peptide)
peptide: [Desaminotyrosyl][dA]DAIFTASYR[Orn]VL[Abu]QLSAR[Orn]LLQDI[Nle]DR[hArg]-NH2
SMILES: CCCC[C@H](NC(=O)[C@@H](NC(=O)[C@H](CC(=O)O)NC(=O)[C@H](CCC(N)=O)NC(=O)[C@H](CC(C)C)NC(=O)[C@H](CC(C)C)NC(=O)[C@H](CCCN)NC(=O)[C@H](CCCNC(=N)N)NC(=O)[C@H](C)NC(=O)[C@H](CO)NC(=O)[C@H](CC(C)C)NC(=O)[C@H](CCC(N)=O)NC(=O)[C@H](CC)NC(=O)[C@H](CC(C)C)NC(=O)[C@@H](NC(=O)[C@H](CCCN)NC(=O)[C@H](CCCNC(=N)N)NC(=O)[C@H](Cc1ccc(O)cc1)NC(=O)[C@H](CO)NC(=O)[C@H](C)NC(=O)[C@@H](NC(=O)[C@H](Cc1ccccc1)NC(=O)[C@@H](NC(=O)[C@H](C)NC(=O)[C@H](CC(=O)O)NC(=O)[C@@H](C)NC(=O)CCc1ccc(O)cc1)[C@@H](C)CC)[C@@H](C)O)C(C)C)[C@@H](C)CC)C(=O)N[C@@H](CC(=O)O)C(=O)N[C@@H](CCCNC(=N)N)C(=O)N[C@@H](CCCCNC(=N)N)C(N)=O

biological target: T1, GHRH receptor of human pituitary …; assay: competition vs 125I-JV-1-42, human pituitary membranes
Description: The final binding affinities were expressed as IC₅₀ values and were calculated by using the LIGAND PC computerized curve-fitting program of Munson and Rodbard as modified by McPherson.

Row | Binder | IC50 | relative affinity (binding potency) vs GHRH | relative affinity (binding potency) vs JI-38
1 | B1 | 0.04 nM | 102 vs GHRH(1-29)=1 | 42.7 vs JI-38=1
2 | B2 | 0.05 nM | 81.2 vs GHRH(1-29)=1 | 34.2 vs JI-38=1
3 | B3 | 0.07 nM | 58 vs GHRH(1-29)=1 | 24.4 vs JI-38=1

biological target: T1, GHRH receptor of human pituitary …; assay: as above; remark: another data set of the same source
Description: (§1) Normal human pituitaries were purchased from the National Hormone and Peptide Program (A.F. Parlow, Los Angeles, County Harbor-UCLA Medical Center, Torrance, Calif.).

Row | Binder | IC50 | relative affinity (binding potency) vs JI-38
4 | B1 | 0.52 nM | 8.37 vs JI-38=1
5 | B2 | 0.86 nM | 5.06 vs JI-38=1
6 | B3 | 0.33 nM | 13.2 vs JI-38=1
7 | B4 | 2.74 nM | 1.59 vs JI-38=1
8 | B5 | 1.44 nM | 3.02 vs JI-38=1

biological target: T1, GHRH receptor of human pituitary …; assay: competition vs 125I-[His1,Nle27]hGHRH(1-32)NH2, human pituitary membranes
Description: as §1

Row | Binder | IC50 | relative affinity (binding potency) vs GHRH | relative affinity (binding potency) vs JI-38
9 | B6 | 0.14 nM | 42.3 vs GHRH(1-29)=1 | 13.9 vs JI-38=1
10 | B7 | 0.07 nM | 84.5 vs GHRH(1-29)=1 | 27.8 vs JI-38=1
11 | B8 | 0.04 nM | 148 vs GHRH(1-29)=1 | 48.7 vs JI-38=1

biological target: T1, GHRH receptor of human pituitary …; assay: as above; remark: another data set of the same source
Description: Normal human pituitary was purchased from the National Hormone and Peptide Program (UCLA Medical Center, Torrance, Calif.).

Row | Binder | IC50 | relative affinity (binding potency) compared to JI-38 | relative affinity (binding potency) compared to hGHRH(1-29)
12 | B2 | 3.3 nM | 0.83 vs JI-38=1 | 2.31 vs hGHRH(1-29)NH2=1
13 | B3 | 2.16 nM | 1.27 vs JI-38=1 | 3.54 vs hGHRH(1-29)NH2=1
14 | B4 | 2.6 nM | 1.05 vs JI-38=1 | 2.94 vs hGHRH(1-29)NH2=1
15 | B5 | 2.85 nM | 0.96 vs JI-38=1 | 2.68 vs hGHRH(1-29)NH2=1

— US20180250358A1, “GHRH AGONISTS FOR THE TREATMENT OF ISCHEMIC DISORDERS” (published 2018)
